Data as given in the DeepSol protein solubility set.

Assay: soluble on expression in E. coli; label from the status in PepcDB or PDB records

| Sequence | soluble on expression in E. coli |
| --- | --- |
| MFNVDGECVVFTSGGTESNNWVIEGTIRNAKKVSKLPHIITTNIEHPSILEPLKRREEDGEISVTYVSINPLTGFVTSQSILDALTSDTCLVTIMLANNDTGVLQPVSEIFQAIREKLKTNVPFLHSDVAQAAGKIPVNVRSLSADAVTVVGHKFYGPRSGALIFNPKSKRIPPMLLGGNQESGWRSGTENTPMIVGLGEAAKVYNEGFLNIESILRQNRDYFEELLLKRLRNSHIIHFIGSQRLPNTSSVAFLDYPSHGCDLLEKCQTFNASTGAACHKNECSPILKACGIPFAVASKTVRISFGRSTKIAEIETVVDELVQLCSPS | not soluble |
| MGSDKIHHHHHHEDVYREVTASGAHNLTLAVDNPRNLGGADDAALARDVAEVLRFDMTLAGPFSVMAPPAGTSPGGIRPGEFDLDSWRNAGVDLLVKSGYTITGDSVTMEFRLYNATQGRELAAKRYTGKRSDLRRITHTFSDDIMQTMTGERGPFTGKIAFVSTESGNKEIYLMDYDGHNVQRLTKNRSINLNPDFSPNGRELAYTSYRRGNPDLFRREIFTGTEAVVSSHRGINVTGTWSPDGKQLALAMSRDGNSEIYAISRDGRDPRRLTTHQAIDVSPAWSPDGKRIAFVSDRLGKPQVFIMNADGSDVRRLTTSGAYNVSPRWSPKGDRLVYCRQEGGFQIYSIATDGTGDTRLTSEGSNEHPRWSPDGRFLTFSSTRDGGEAIYVMRSDGSGQTRVYRSKGKASHPTWSPRW | not soluble |
| MGSDKIHHHHHHMIDFIISIDDCAVELDSRQSWKIRYPLSTILFLVFVCQLAGIETWKEMEDFIEMNEPLFATYVDLSEGCPSHDTLERVISLVNSDRLKELKVQFEQSLTSLDAVHQLISVDGKTIRGNRGKNQKPVHIVTAYDGGHHLSLGQVAVEEKSNEIVAIPQLLRTIDIRKSIVTIDAMGTQTAIVDTIIKGKADYCLAVKGNQETLYDDIALYFSDVNLLEELQENAQYYQTVEKSRGQIEVREYWVSSDIKWLCQNHPKWHKLRGIGMTRNTIDKDGQLSQENRYFIFSFKPDVLTFANCVRGHWQIESMHWLLDVVYHEDHHQTLDKRAAFNLNLIRKMCLYFLKVMVFPKKDLSYRRKQRYISVHLEDYLVQLFGERG | not soluble |
| MTVTFQNNPVSISGSFPKVGDRLPSFTLCGADLNDLSNEDFKGKKIVMSIFPSIDTPVCSKSVKVLQNALMTRNDTVLLCVSADLPFAMSRFCTEHAVANVTNASFFREPAFTERFGVNLNEGALRGLAARAVIVADEFGVITHSELVNEITNEPDYDRILMSL | not soluble |
| GPGSMEQWSACEAATRRVLAVDRTERYPSARRLVRVFISQGRLQEAQQAVSPHRDAIDWAAEVAAVKACTSYTNFYAAHQYSKALESLEVVLSLCPCGTLEAAKARLLSLENAAQAVSYAAQRSRAYATSTELHFCLWSLTFHSVTSVVGLDTLLADMQATPLGRSELRFRHLHTHIARCKEALAKLQVLKTARQWREAATFVTQVLAEPFLPDGLKGVMYYERARALAQQASWYATLDDTHRALSYTEAVSLRANMLLLVARCEEALGRLRDAVYHTEESLGLASNAAAVEQLRSLKARWAHVQASTDAPRTTPRTTSKETPKPNTNANAFSPVSRASLDVHYKTLSLPRSAGAAEVKKSYRALAIKWHPDRWCSASTEAIRTAESTFKTIQHAYEEIMKSAS | not soluble |
| MSLSIVEPDLENCFRILIATDNHIGYAEKDPVRGQDSINTFREILELARDHDVDFILLAGDLFHENRPSRTCMHQTIALLREFTLGDKPIEFELLSDPMDGSTPGFSFPAVNYEDPNINIAIPVFSIHGNHDDPQGTGPEGALCALDVLSVSGVLNYFGKSDLVADENAADNPEKGIQIRPVLLRKGTTHVALYGCGNIRDQRMYQELRANKVKMFMPTGGNVPDSEWFNILLVHQNRVRHGPQNYVPENMFDDSMRLVIWGHEHDCRITPESVADKSYFITQPGSSVATSLAPGEAIPKHVGLLSIQGSQFQLEEIPLKTVRPFELDEVVLSYAAEQGAVDLNDRDSITSFLREQVEALILQAKKEGHHHHHH | not soluble |
| AHHHHHHGSAGIEVQILEKKEDSIKFVLKGVHVSFANALRRTILGEVPTFAVDEVEFYENDSALFDEIIAHRLAMIPLTTPVDRFELDALELDDYTVTLSLEAEGPGIVYSGDLKSDDPDVKPVNPNIPIVKLAEGQRLVFNAYAKLGRGKDHAKWQPGFVYYKYYTIVHISKSIPEWKELKKLAKKRGLPVEETEEEVLVTTIKPFYIPKDFEEYEGKEIWEEIVPNTYIFTVETNGELPVEEIVSIALKILMRKADRFISELQKLTS | soluble |
